Experiments:
Assay in all cases: holdup assay
Design in all cases: key: below the threshold = too weak to quantify, mostly under pKd 3.1 to 4
MPDZ_10, O75970 = molecular target: T1, MPDZ_10, O75970
T1 sequence (O75970 1624-1722, limits assumed, looked up): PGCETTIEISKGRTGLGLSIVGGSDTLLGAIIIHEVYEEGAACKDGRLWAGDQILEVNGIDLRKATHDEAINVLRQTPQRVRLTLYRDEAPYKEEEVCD

Inadl_5, Q8NI35 = molecular target: Inadl_5, Q8NI35
GRIP2_5, Q9C0E4 = molecular target: GRIP2_5, Q9C0E4
DLG1_3, Q12959 = molecular target: DLG1_3, Q12959
Sequence of DLG1_3, Q12959 (Q12959 457-571): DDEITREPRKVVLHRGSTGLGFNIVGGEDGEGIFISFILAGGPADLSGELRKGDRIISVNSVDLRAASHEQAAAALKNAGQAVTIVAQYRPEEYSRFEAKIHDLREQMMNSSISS

DFNB31_2, Q9P202 = molecular target: T2, DFNB31_2, Q9P202
T2 sequence (Q9P202 274-371, limits assumed, looked up): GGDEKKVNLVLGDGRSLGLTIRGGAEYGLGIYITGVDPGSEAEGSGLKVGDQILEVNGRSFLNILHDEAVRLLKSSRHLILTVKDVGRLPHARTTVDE

GORASP2, Q9H8Y8 = molecular target: GORASP2, Q9H8Y8
LNX2_2, Q8N448 = molecular target: T3, LNX2_2, Q8N448
T3 sequence (Q8N448 334-432, limits assumed, looked up): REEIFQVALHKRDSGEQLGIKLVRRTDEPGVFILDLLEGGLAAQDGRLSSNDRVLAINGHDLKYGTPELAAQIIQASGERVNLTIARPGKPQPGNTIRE

ARHGEF11, O15085 = molecular target: T4, ARHGEF11, O15085
T4 sequence (O15085 42-136, limits assumed, looked up): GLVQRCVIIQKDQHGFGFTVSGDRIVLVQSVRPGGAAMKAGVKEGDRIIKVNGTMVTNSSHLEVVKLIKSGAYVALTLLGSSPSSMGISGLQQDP

TJP1_3, Q07157 = molecular target: TJP1_3, Q07157
Sequence of TJP1_3, Q07157 (Q07157 416-512): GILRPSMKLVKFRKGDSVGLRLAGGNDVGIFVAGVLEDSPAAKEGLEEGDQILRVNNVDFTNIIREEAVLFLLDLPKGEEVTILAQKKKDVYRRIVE

PICK1, Q9NRD5 = molecular target: PICK1, Q9NRD5
Sequence of PICK1, Q9NRD5 (Q9NRD5 17-115): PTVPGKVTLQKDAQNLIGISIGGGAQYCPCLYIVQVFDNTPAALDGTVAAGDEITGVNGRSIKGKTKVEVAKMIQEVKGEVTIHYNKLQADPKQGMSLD

Inadl_1, Q8NI35 = molecular target: Inadl_1, Q8NI35
Sequence of Inadl_1, Q8NI35 (Q8NI35 113-229): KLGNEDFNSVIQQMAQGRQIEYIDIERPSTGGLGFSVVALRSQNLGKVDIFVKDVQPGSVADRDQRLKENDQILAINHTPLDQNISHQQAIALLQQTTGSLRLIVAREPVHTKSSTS

SNX27, Q96L92 = molecular target: SNX27, Q96L92
NHERF3_3, Q5T2W1 = molecular target: T5, NHERF3_3, Q5T2W1
T5 sequence (Q5T2W1 238-333, limits assumed, looked up): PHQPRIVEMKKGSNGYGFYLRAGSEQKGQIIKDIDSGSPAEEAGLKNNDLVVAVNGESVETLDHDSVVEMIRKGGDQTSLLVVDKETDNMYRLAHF

GOPC, Q9HD26 = molecular target: GOPC, Q9HD26
APBA2_2, Q99767 = molecular target: T6, APBA2_2, Q99767
T6 sequence (Q99767 654-744, limits assumed, looked up): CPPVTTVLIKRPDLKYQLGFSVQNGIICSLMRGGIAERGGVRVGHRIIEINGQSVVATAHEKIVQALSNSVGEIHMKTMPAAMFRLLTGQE

LNX2_3, Q8N448 = molecular target: T7, LNX2_3, Q8N448
T7 sequence (Q8N448 463-564, limits assumed, looked up): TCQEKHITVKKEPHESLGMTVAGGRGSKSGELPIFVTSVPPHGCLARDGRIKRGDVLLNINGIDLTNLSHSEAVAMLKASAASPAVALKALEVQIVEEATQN

DFNB31_3, Q9P202 = molecular target: T8, DFNB31_3, Q9P202
T8 sequence (Q9P202 811-907, limits assumed, looked up): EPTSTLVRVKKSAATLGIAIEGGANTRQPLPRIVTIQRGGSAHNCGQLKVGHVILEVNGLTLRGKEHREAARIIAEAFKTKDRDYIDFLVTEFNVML

Inadl_9, Q8NI35 = molecular target: Inadl_9, Q8NI35
Sequence of Inadl_9, Q8NI35 (Q8NI35 1530-1615): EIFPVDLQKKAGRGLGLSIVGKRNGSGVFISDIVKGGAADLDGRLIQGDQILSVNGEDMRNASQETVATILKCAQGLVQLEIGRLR

Inadl_4, Q8NI35 = molecular target: Inadl_4, Q8NI35
Sequence of Inadl_4, Q8NI35 (Q8NI35 547-651): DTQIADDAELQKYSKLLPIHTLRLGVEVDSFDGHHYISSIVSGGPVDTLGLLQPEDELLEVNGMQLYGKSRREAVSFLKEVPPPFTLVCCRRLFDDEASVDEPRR

GRID2IP_2, A4D2P6 = molecular target: GRID2IP_2, A4D2P6
Sequence of GRID2IP_2, A4D2P6 (A4D2P6 272-370): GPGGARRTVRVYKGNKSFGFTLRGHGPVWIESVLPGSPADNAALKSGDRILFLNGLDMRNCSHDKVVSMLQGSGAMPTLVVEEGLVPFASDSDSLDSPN

MAST1, Q9Y2H9 = molecular target: MAST1, Q9Y2H9
Sequence of MAST1, Q9Y2H9 (Q9Y2H9 962-1065): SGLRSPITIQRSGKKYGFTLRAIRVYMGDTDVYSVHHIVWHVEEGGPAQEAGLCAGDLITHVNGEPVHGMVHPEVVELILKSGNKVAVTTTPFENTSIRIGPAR

HTRA3, P83110 = molecular target: T9, HTRA3, P83110
T9 sequence (P83110 354-453, limits assumed, looked up): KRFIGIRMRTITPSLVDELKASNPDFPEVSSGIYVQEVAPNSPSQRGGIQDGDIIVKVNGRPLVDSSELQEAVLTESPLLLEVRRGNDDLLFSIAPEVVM

MAGI1_1, Q96QZ7 = molecular target: MAGI1_1, Q96QZ7
Sequence of MAGI1_1, Q96QZ7 (Q96QZ7 1-106): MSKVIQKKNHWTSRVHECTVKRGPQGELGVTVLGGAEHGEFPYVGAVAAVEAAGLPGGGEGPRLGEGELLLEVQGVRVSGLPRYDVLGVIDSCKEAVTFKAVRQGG

TJP1_2, Q07157 = molecular target: TJP1_2, Q07157
Sequence of TJP1_2, Q07157 (Q07157 181-274): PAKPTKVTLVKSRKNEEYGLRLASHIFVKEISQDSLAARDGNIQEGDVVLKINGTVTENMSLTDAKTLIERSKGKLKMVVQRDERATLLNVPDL

HTRA1, Q92743 = molecular target: HTRA1, Q92743
Sequence of HTRA1, Q92743 (Q92743 360-477): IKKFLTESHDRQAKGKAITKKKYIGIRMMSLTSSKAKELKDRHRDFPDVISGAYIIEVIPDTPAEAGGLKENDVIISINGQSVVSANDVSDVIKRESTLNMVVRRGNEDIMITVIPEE

IL16_3, Q14005 = molecular target: IL16_3, Q14005
Sequence of IL16_3, Q14005 (Q14005 1107-1207): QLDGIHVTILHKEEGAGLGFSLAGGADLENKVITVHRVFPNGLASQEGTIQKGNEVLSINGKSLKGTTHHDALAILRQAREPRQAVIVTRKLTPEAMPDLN

MAGI3_2, Q5TCQ9 = molecular target: MAGI3_2, Q5TCQ9
Sequence of MAGI3_2, Q5TCQ9 (Q5TCQ9 398-503): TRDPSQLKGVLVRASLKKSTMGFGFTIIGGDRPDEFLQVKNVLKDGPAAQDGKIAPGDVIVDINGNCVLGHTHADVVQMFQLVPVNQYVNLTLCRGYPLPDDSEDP

GRIP2_4, Q9C0E4 = molecular target: GRIP2_4, Q9C0E4
Sequence of GRIP2_4, Q9C0E4 (Q9C0E4 446-548): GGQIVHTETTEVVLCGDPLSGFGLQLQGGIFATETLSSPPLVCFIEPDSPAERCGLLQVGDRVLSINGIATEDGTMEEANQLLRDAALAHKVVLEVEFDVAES

HTRA2, O43464 = molecular target: HTRA2, O43464
Sequence of HTRA2, O43464 (O43464 355-458): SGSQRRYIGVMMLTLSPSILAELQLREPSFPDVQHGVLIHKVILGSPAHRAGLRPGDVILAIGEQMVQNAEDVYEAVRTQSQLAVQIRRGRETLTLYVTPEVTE

[1] = plain residues with an end cap or a label only (N-terminal biotin on a linker: ttds)
[2] = plain residues with an end cap or a label only (N-terminal biotin on a linker: none)
[3] = plain residues with an end cap or a label only (N-terminal biotin on a linker: ahx)

Sequence of GRIP2_5, Q9C0E4 (Q9C0E4 544-642): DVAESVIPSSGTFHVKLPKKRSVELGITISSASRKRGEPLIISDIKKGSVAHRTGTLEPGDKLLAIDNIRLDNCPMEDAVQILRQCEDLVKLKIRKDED
Sequence of Inadl_5, Q8NI35 (Q8NI35 673-780): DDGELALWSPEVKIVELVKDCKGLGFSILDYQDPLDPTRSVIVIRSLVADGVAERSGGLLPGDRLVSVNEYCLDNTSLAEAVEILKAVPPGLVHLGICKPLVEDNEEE

PVRVCEETSL [OTULIN, Q96BN8]
pKd (MPDZ_10, O75970; [1]): below the threshold | pKd (Inadl_5, Q8NI35; [1]): 3.54 | pKd (GRIP2_5, Q9C0E4; [1]): below the threshold | pKd (DLG1_3, Q12959; [1]): 4.14 | pKd (DFNB31_2, Q9P202; [1]): 3.58 | pKd (GORASP2, Q9H8Y8; [1]): below the threshold | pKd (LNX2_2, Q8N448; [1]): below the threshold | pKd (ARHGEF11, O15085; [1]): 4.63 | pKd (TJP1_3, Q07157; [1]): below the threshold | pKd (PICK1, Q9NRD5; [1]): below the threshold | pKd (Inadl_1, Q8NI35; [1]): 3.7 | pKd (SNX27, Q96L92; [1]): 5.58 | pKd (NHERF3_3, Q5T2W1; [1]): below the threshold | pKd (GOPC, Q9HD26; [1]): 4.44 | pKd (APBA2_2, Q99767; [1]): 3.51 | pKd (LNX2_3, Q8N448; [1]): below the threshold | pKd (DFNB31_3, Q9P202; [1]): 3.49 | pKd (Inadl_9, Q8NI35; [1]): below the threshold | pKd (Inadl_4, Q8NI35; [1]): below the threshold | pKd (GRID2IP_2, A4D2P6; [1]): 4.75 | pKd (MAST1, Q9Y2H9; [1]): 5.3 | pKd (HTRA3, P83110; [1]): below the threshold | pKd (MAGI1_1, Q96QZ7; [1]): below the threshold | pKd (TJP1_2, Q07157; [1]): below the threshold | pKd (HTRA1, Q92743; [1]): 4.04 | pKd (IL16_3, Q14005; [1]): below the threshold | pKd (MAGI3_2, Q5TCQ9; [1]): 3.71 | pKd (GRIP2_4, Q9C0E4; [1]): 3.53 | pKd (HTRA2, O43464; [1]): below the threshold

NLNSSRVPDLLV [SARS-CoV2-E, P0DTC4]
pKd (MPDZ_10, O75970; [2]): below the threshold | pKd (Inadl_5, Q8NI35; [2]): below the threshold | pKd (GRIP2_5, Q9C0E4; [2]): below the threshold | pKd (DLG1_3, Q12959; [2]): below the threshold | pKd (DFNB31_2, Q9P202; [2]): below the threshold | pKd (GORASP2, Q9H8Y8; [2]): below the threshold | pKd (LNX2_2, Q8N448; [2]): 4.46 | pKd (ARHGEF11, O15085; [2]): below the threshold | pKd (TJP1_3, Q07157; [2]): below the threshold | pKd (PICK1, Q9NRD5; [2]): 3.67 | pKd (Inadl_1, Q8NI35; [2]): below the threshold | pKd (SNX27, Q96L92; [2]): below the threshold | pKd (NHERF3_3, Q5T2W1; [2]): below the threshold | pKd (GOPC, Q9HD26; [2]): below the threshold | pKd (APBA2_2, Q99767; [2]): below the threshold | pKd (LNX2_3, Q8N448; [2]): below the threshold | pKd (DFNB31_3, Q9P202; [2]): below the threshold | pKd (Inadl_9, Q8NI35; [2]): below the threshold | pKd (Inadl_4, Q8NI35; [2]): below the threshold | pKd (GRID2IP_2, A4D2P6; [2]): below the threshold | pKd (MAST1, Q9Y2H9; [2]): below the threshold | pKd (HTRA3, P83110; [2]): 3.63 | pKd (MAGI1_1, Q96QZ7; [2]): below the threshold | pKd (TJP1_2, Q07157; [2]): 5.52 | pKd (HTRA1, Q92743; [2]): 4.32 | pKd (IL16_3, Q14005; [2]): below the threshold | pKd (MAGI3_2, Q5TCQ9; [2]): below the threshold | pKd (GRIP2_4, Q9C0E4; [2]): below the threshold | pKd (HTRA2, O43464; [2]): below the threshold

TVICWPGSLV [LNX2, Q8N448]
pKd (MPDZ_10, O75970; [3]): 3.9 | pKd (Inadl_5, Q8NI35; [3]): 3.51 | pKd (GRIP2_5, Q9C0E4; [3]): below the threshold | pKd (DLG1_3, Q12959; [3]): 4.32 | pKd (DFNB31_2, Q9P202; [3]): below the threshold | pKd (GORASP2, Q9H8Y8; [3]): 4.55 | pKd (LNX2_2, Q8N448; [3]): 4.32 | pKd (ARHGEF11, O15085; [3]): 3.58 | pKd (TJP1_3, Q07157; [3]): below the threshold | pKd (PICK1, Q9NRD5; [3]): 3.75 | pKd (Inadl_1, Q8NI35; [3]): below the threshold | pKd (SNX27, Q96L92; [3]): 3.95 | pKd (NHERF3_3, Q5T2W1; [3]): below the threshold | pKd (GOPC, Q9HD26; [3]): 4.33 | pKd (APBA2_2, Q99767; [3]): below the threshold | pKd (LNX2_3, Q8N448; [3]): 3.65 | pKd (DFNB31_3, Q9P202; [3]): below the threshold | pKd (Inadl_9, Q8NI35; [3]): 3.99 | pKd (Inadl_4, Q8NI35; [3]): below the threshold | pKd (GRID2IP_2, A4D2P6; [3]): 3.95 | pKd (MAST1, Q9Y2H9; [3]): 3.88 | pKd (HTRA3, P83110; [3]): 3.85 | pKd (MAGI1_1, Q96QZ7; [3]): below the threshold | pKd (TJP1_2, Q07157; [3]): below the threshold | pKd (HTRA1, Q92743; [3]): 4.94 | pKd (IL16_3, Q14005; [3]): below the threshold | pKd (MAGI3_2, Q5TCQ9; [3]): 4.58 | pKd (GRIP2_4, Q9C0E4; [3]): below the threshold | pKd (HTRA2, O43464; [3]): 4.42

From article PMC9482650, “Quantitative fragmentomics allow affinity mapping of interactomes” (Nature Communications, 2022)
